Laboratory results published in patent US20230183661A1, “BICOMPATIBLE PEPTIDEBIOCOMPATIBLE PEPTIDES FOR INHIBITION OF AGGREGATION OF B-AMYLOID PROTEIN” (Catholic University Industry Academic Cooperation Foundation, priority 2017, published 2023).

Molecular target: β-amyloid (Aβ) overexpressed in nerve cells (UniProt P05067)
Assay: Co-IP from N2a cells, relative score

Binding strength with β-amyloid: 1
Binder: ATKAVCVLKGDGPVQGIINFEQKESNGPVKVWGSIKGLT [Peptide 4 (β 1-3 fragment of SOD1)]
